B1: BK polyomavirus major capsid protein VP1 (native infectious virion, Dunlop strain) (natural protein)
chain: MAPTKRKGECPGAAPKKPKEPVQVPKLLIKGGVEVLEVKTGVDAITEVECFLNPEMGDPDENLRGFSLKLSAENDFSSDSPERKMLPCYSTARIPLPNLNEDLTCGNLLMWEAVTVQTEVIGITSMLNLHAGSQKVHEHGGGKPIQGSNFHFFAVGGEPLEMQGVLMNYRSKYPDGTITPKNPTAQSQVMNTDHKAYLDKNNAYPVECWVPDPSRNENARYFGTFTGGENVPPVLHVTNTATTVLLDEQGVGPLCKADSLYVSAADICGLFTNSSGTQQWRGLARYFKIRLRKRSVKNPYPISFLLSDLINRRTQRVDGQPMYGMESQVEEVRVFDGTERLPGDPDMIRYIDKQGQLQTKML
notes: Major capsid protein VP1 of BK polyomavirus, Dunlop strain, as assembled in the native virion; Five copies form one penton; 72 pentons form the T = 7d capsid, with VP1 in six quasi-equivalent conformations; PDB 5FUA is a homology model of BK VP1 (built on SV40, PDB 1SVA) fitted into the virion map; also called BK VP1; BKPyV VP1; source: Vero cells transfected/infected with the BK Dunlop genome; …

Series [1] deals with BK polyomavirus major capsid protein VP1 (VP1-only virus-like particle) (BK polyomavirus) (UniProt P03088). Briefly: cryo-EM structure; purified VP1-only VLPs in buffer A supplemented with 50 mM CaCl2, vitrified; FEI Polara, K2 summit in super-resolution mode; icosahedral single-particle reconstruction in RELION, 9.1 Å.
Series [2] deals with the molecule itself. Put plainly: cryo-EM structure; purified native BK virions in buffer A (10 mM HEPES pH 7.9, 1 mM CaCl2, 1 mM MgCl2, 5 mM KCl), vitrified; FEI Tecnai-F20, 200 kV, K2-Summit; icosahedral single-particle reconstruction in RELION, 7.6 Å.
The target of series [3] is B1. The series is described as above. The settings on record: both partners purified.

As for “BK polyomavirus major capsid protein VP1 (VP1-only virus-like particle) (from UniProt P03088 1-362) (natural protein)”, in series [1], the stoichiometry N worked out at 5.

For the molecule B1, the “stoichiometry N” value in series [2] came out at 5.

B2: BK polyomavirus minor capsid protein VP2 (natural protein)
chain: MGAALALLGDLVASVSEAAAATGFSVAEIAAGEAAAAIEVQIASLATVEGITSTSEAIAAIGLTPQTYAVIAGAPGAIAGFAALIQTVSGISSLAQVGYRFFSDWDHKVSTVGLYQQSGMALELFNPDEYYDILFPGVNTFVNNIQYLDPRHWGPSLFATISQALWHVIRDDIPSITSQELQRRTERFFRDSLARFLEETTWTIVNAPINFYNYIQQYYSDLSPIRPSMVRQVAEREGTRVHFGHTYSIDDADSIEEVTQRMDLRNQQSVHSGEFIEKTIAPGGANQRTAPQWMLPLLLGLYGTVTPALEAYEDGPNQKKRRVSRGSSQKAKGTRASAKTTNKRRSRSSRS
notes: Minor capsid protein VP2 of BK polyomavirus, Dunlop strain; printed mass 38.3 kDa; same open reading frame as VP3, with an extended N terminus; The introduction says the extended N terminus of VP2 holds a site for myristoylation; also called VP2/3; VP2/VP3; source: Vero cells transfected/infected with the BK Dunlop genome; in purified virions (CsCl gradient, 1-MDa centrifugal concentrator)
As for B2, the binding result in series [3] is recorded as “binds”.

B3: BK polyomavirus minor capsid protein VP3 (natural protein)
chain: MALELFNPDEYYDILFPGVNTFVNNIQYLDPRHWGPSLFATISQALWHVIRDDIPSITSQELQRRTERFFRDSLARFLEETTWTIVNAPINFYNYIQQYYSDLSPIRPSMVRQVAEREGTRVHFGHTYSIDDADSIEEVTQRMDLRNQQSVHSGEFIEKTIAPGGANQRTAPQWMLPLLLGLYGTVTPALEAYEDGPNQKKRRVSRGSSQKAKGTRASAKTTNKRRSRSSRS
notes: Minor capsid protein VP3 of BK polyomavirus, Dunlop strain; printed mass 26.7 kDa; expressed from the same open reading frame as VP2 but without VP2's extended N terminus; also called VP2/3; VP2/VP3; source: Vero cells transfected/infected with the BK Dunlop genome; in purified virions (CsCl gradient, 1-MDa centrifugal concentrator)
For B3, the binding result in series [3] is “binds”.

By stoichiometry N is commonly meant a count of units in the complex or per binding partner.

For the origin of these results see article PMC4826271, “New Structural Insights into the Genome and Minor Capsid Proteins of BK Polyomavirus using Cryo-Electron Microscopy” (Structure(London, England:1993), 2016).
